The values that follow come from the RNAGym collection of RNA variant scans (doi:10.7554/elife.80360).

First the molecules themselves.
B1: Hammerhead Ribozyme (parent)
chain: ACCGGAUGUGCUUUCCGGUCUGAUGAGUCCGUGAGGACGAAACAG

The data set covers variants of B1. Description: self-cleavage, relative activity (ratio to wild type); higher = more cleavage; co-transcriptional.
With ACCGGAUGUGCUUUCCGGUCUGAUGAGUCCGUGAUGACGAAUCAG, the self-cleavage is 0.344.

In the case of ACCGGAUGUGCUUUCCGGUCUGAUGAGUCCGUGAUGACGAACCAG, the self-cleavage is 0.384.

With ACCGGAUGUGCUUUCCGGUCUGAUGAGUCCGUGAUGACGAAGCAG, the self-cleavage came out at 0.253.

As to ACCGGAUGUGCUUUCCGGUCUGAUGAGUCCGUGAGCACGGAACAG, the self-cleavage came out at 0.368.

Turning to ACCGGAUGUGCUUUCCGGUCUGAUGAGUCCGUGAGCACGCAACAG, the self-cleavage was 0.4.

In the case of ACCGGAUGUGCUUUCCGGUCUGAUGAGUCCGUGAGCACGUAACAG, the self-cleavage stood at 0.346.

For ACCGGAUGUGCUUUCCGGUCUGAUGAGUCCGUGAGAACGAACCAG, the self-cleavage was determined as 0.287.

Consider ACCGGAUGUGCUUUCCGGUCUGAUGAGUCCGUGAGAACGAAUCAG, for which the self-cleavage is 0.333.

Take ACCGGAUGUGCUUUCCGGUCUGAUGAGUCCGUGAGAACGAAGCAG: the self-cleavage was 0.25.

Regarding ACCGGAUGUGCUUUCCGGUCUGAUGAGUCCGUGACGACGAAACAU, the self-cleavage is 0.498.

Consider ACCGGAUGUGCUUUCCGGUCUGAUGAGUCCGUGACGACGAAACAA, for which the self-cleavage worked out at 0.385.

In the case of ACCGGAUGUGCUUUCCGGUCUGAUGAGUCCGUGACGACGAAACAC, the self-cleavage came to 0.395.

As for ACCGGAUGUGCUUUCCGGUCUGAUGAGUCCGUGAGCUCGAAACAG, the self-cleavage is 0.29.

For the variant ACCGGAUGUGCUUUCCGGUCUGAUGAGUCCGUGAGCGCGAAACAG, the self-cleavage is 0.748.

For ACCGGAUGUGCUUUCCGGUCUGAUGAGUCCGUGAGCCCGAAACAG, the self-cleavage came out at 0.296.

Consider ACCGGAUGUGCUUUCCGGUCUGAUGAGUCCGUGAGAUCGAAACAG, for which the self-cleavage was determined as 0.533.

For ACCGGAUGUGCUUUCCGGUCUGAUGAGUCCGUGAGACCGAAACAG, the self-cleavage was 0.414.

Consider ACCGGAUGUGCUUUCCGGUCUGAUGAGUCCGUGAGAGCGAAACAG, for which the self-cleavage amounted to 0.556.

In the case of ACCGGAUGUGCUUUCCGGUCUGAUGAGUCCGUGAGAACGAAACAA, the self-cleavage turned out to be 0.444.

Take ACCGGAUGUGCUUUCCGGUCUGAUGAGUCCGUGAGAACGAAACAC: the self-cleavage turned out to be 0.422.

Take ACCGGAUGUGCUUUCCGGUCUGAUGAGUCCGUGAGAACGAAACAU: the self-cleavage turned out to be 0.452.

Consider ACCGGAUGUGCUUUCCGGUCUGAUGAGUCCGUGAGUACGAAACAG, for which the self-cleavage is 0.625.

ACCGGAUGUGCUUUCCGGUCUGAUGAGUCCGUGAGCACGAAACAG: the self-cleavage was determined as 0.52.

As to ACCGGAUGUGCUUUCCGGUCUGAUGAGUCCGUGAGAACGAAACAG, the self-cleavage came to 0.733.

As for ACCGGAUGUGCUUUCCGGUCUGAUGAGUCCGUGAGUACGAAACCG, the self-cleavage was found to be 0.339.

For ACCGGAUGUGCUUUCCGGUCUGAUGAGUCCGUGAGUACGAAACGG, the self-cleavage is 0.706.

Consider ACCGGAUGUGCUUUCCGGUCUGAUGAGUCCGUGAGUACGAAACUG, for which the self-cleavage was found to be 0.379.

As to ACCGGAUGUGCUUUCCGGUCUGAUGAGUCCGUGAGUACGUAACAG, the self-cleavage was 0.281.

ACCGGAUGUGCUUUCCGGUCUGAUGAGUCCGUGAGUACGCAACAG: the self-cleavage amounted to 0.43.

ACCGGAUGUGCUUUCCGGUCUGAUGAGUCCGUGAGUACGGAACAG: the self-cleavage amounted to 0.29.

Turning to ACCGGAUGUGCUUUCCGGUCUGAUGAGUCCGUGAUGACGGAACAG, the self-cleavage is 0.342.

Consider ACCGGAUGUGCUUUCCGGUCUGAUGAGUCCGUGAUGACGCAACAG, for which the self-cleavage is 0.374.

Turning to ACCGGAUGUGCUUUCCGGUCUGAUGAGUCCGUGAUGACGUAACAG, the self-cleavage came out at 0.366.

Consider ACCGGAUGUGCUUUCCGGUCUGAUGAGUCCGUGAUGACGAAAGAG, for which the self-cleavage was 0.34.

As to ACCGGAUGUGCUUUCCGGUCUGAUGAGUCCGUGAUGACGAAAAAG, the self-cleavage stood at 0.378.

For ACCGGAUGUGCUUUCCGGUCUGAUGAGUCCGUGAUGACGAAAUAG, the self-cleavage was 0.43.

Regarding ACCGGAUGUGCUUUCCGGUCUGAUGAGUCCGUGAUGAAGAAACAG, the self-cleavage was 0.404.

As for ACCGGAUGUGCUUUCCGGUCUGAUGAGUCCGUGAUGAUGAAACAG, the self-cleavage worked out at 0.775.

Consider ACCGGAUGUGCUUUCCGGUCUGAUGAGUCCGUGAUGAGGAAACAG, for which the self-cleavage came out at 0.374.

As to ACCGGAUGUGCUUUCCGGUCUGAUGAGUCCGUGAGCAGGAAACAG, the self-cleavage was determined as 0.369.

Regarding ACCGGAUGUGCUUUCCGGUCUGAUGAGUCCGUGAGCAUGAAACAG, the self-cleavage stood at 0.335.

As to ACCGGAUGUGCUUUCCGGUCUGAUGAGUCCGUGAGCAAGAAACAG, the self-cleavage was 0.403.

Take ACCGGAUGUGCUUUCCGGUCUGAUGAGUCCGUGAGAACUAAACAG: the self-cleavage was 0.322.

Turning to ACCGGAUGUGCUUUCCGGUCUGAUGAGUCCGUGAGAACAAAACAG, the self-cleavage is 0.337.

In the case of ACCGGAUGUGCUUUCCGGUCUGAUGAGUCCGUGAGAACCAAACAG, the self-cleavage was 0.306.

Take ACCGGAUGUGCUUUCCGGUCUGAUGAGUCCGUGAGCACGAAAAAG: the self-cleavage is 0.35.

For ACCGGAUGUGCUUUCCGGUCUGAUGAGUCCGUGAGCACGAAAUAG, the self-cleavage was found to be 0.308.

As to ACCGGAUGUGCUUUCCGGUCUGAUGAGUCCGUGAGCACGAAAGAG, the self-cleavage worked out at 0.286.

ACCGGAUGUGCUUUCCGGUCUGAUGAGUCCGUGAUGACUAAACAG: the self-cleavage is 0.42.

For the variant ACCGGAUGUGCUUUCCGGUCUGAUGAGUCCGUGAUGACCAAACAG, the self-cleavage came out at 0.344.

For ACCGGAUGUGCUUUCCGGUCUGAUGAGUCCGUGAUGACAAAACAG, the self-cleavage worked out at 0.331.

Consider ACCGGAUGUGCUUUCCGGUCUGAUGAGUCCGUGAUGACGAAACUG, for which the self-cleavage was found to be 0.338.

Take ACCGGAUGUGCUUUCCGGUCUGAUGAGUCCGUGAUGACGAAACGG: the self-cleavage amounted to 0.943.

Take ACCGGAUGUGCUUUCCGGUCUGAUGAGUCCGUGAUGACGAAACCG: the self-cleavage came out at 0.384.

With ACCGGAUGUGCUUUCCGGUCUGAUGAGUCCGUGAGUGCGAAACAG, the self-cleavage was determined as 0.479.

As for ACCGGAUGUGCUUUCCGGUCUGAUGAGUCCGUGAGUUCGAAACAG, the self-cleavage is 0.724.

For the variant ACCGGAUGUGCUUUCCGGUCUGAUGAGUCCGUGAGUCCGAAACAG, the self-cleavage was found to be 0.331.
